In the array DNA melting data of Ke et al.:

Assay: melting temperature; melt of duplexes
Conditions: sodium 0.0675 M; strand 1 µM

Row | Substance | Tm [°C]
1 | CGACGTGCCATATGTGCTG+CAGCACATGTTGCACGTCG ((((((((.(.((((((((+)))))))).).)))))))) | 50.8
2 | CGACGTGCCATATGTGCTG+CAGCACATTAAGCACGTCG ((((((((...((((((((+))))))))...)))))))) | 50.1
3 | CGACGTGCCATATGTGCTG+CAGCACATTATGCACGTCG ((((((((...((((((((+))))))))...)))))))) | 50.3
4 | CGACGTGCCATATGTGCTG+CAGCACATTGGGCACGTCG (((((((((..((((((((+))))))))..))))))))) | 55.6
5 | CGACGTGCCCAATGTGCTG+CAGCACATAATGCACGTCG ((((((((...((((((((+))))))))...)))))))) | 47.6
6 | CGACGTGCCCAATGTGCTG+CAGCACATATAGCACGTCG ((((((((...((((((((+))))))))...)))))))) | 48.5
7 | CGACGTGCCCAATGTGCTG+CAGCACATATCGCACGTCG ((((((((...((((((((+))))))))...)))))))) | 47.1
8 | CGACGTGCCCAATGTGCTG+CAGCACATCCAGCACGTCG ((((((((...((((((((+))))))))...)))))))) | 49
9 | CGACGTGCCCAATGTGCTG+CAGCACATCGAGCACGTCG ((((((((.(.((((((((+)))))))).).)))))))) | 50.3
10 | CGACGTGCCCAATGTGCTG+CAGCACATCGGGCACGTCG ((((((((((.((((((((+)))))))).)))))))))) | 58.9
11 | CGACGTGCCCAATGTGCTG+CAGCACATCGTGCACGTCG ((((((((.(.((((((((+)))))))).).)))))))) | 45.8
12 | CGACGTGCCCAATGTGCTG+CAGCACATCTTGCACGTCG ((((((((...((((((((+))))))))...)))))))) | 48.1
13 | CGACGTGCCCAATGTGCTG+CAGCACATGAGGCACGTCG (((((((((..((((((((+))))))))..))))))))) | 56.1
14 | CGACGTGCCCAATGTGCTG+CAGCACATGCGGCACGTCG (((((((((..((((((((+))))))))..))))))))) | 54.3
15 | CGACGTGCCCAATGTGCTG+CAGCACATGGAGCACGTCG ((((((((.(.((((((((+)))))))).).)))))))) | 55.5
16 | CGACGTGCCCAATGTGCTG+CAGCACATGTAGCACGTCG ((((((((...((((((((+))))))))...)))))))) | 50.6
17 | CGACGTGCCCAATGTGCTG+CAGCACATGTCGCACGTCG ((((((((...((((((((+))))))))...)))))))) | 49.5
18 | CGACGTGCCCAATGTGCTG+CAGCACATGTGGCACGTCG (((((((((..((((((((+))))))))..))))))))) | 56.2
19 | CGACGTGCCCAATGTGCTG+CAGCACATTATGCACGTCG ((((((((..(((((((((+)))))))))..)))))))) | 50.1
20 | CGACGTGCCCAATGTGCTG+CAGCACATTCGGCACGTCG (((((((((.(((((((((+))))))))).))))))))) | 55.8
21 | CGACGTGCCCAATGTGCTG+CAGCACATTGAGCACGTCG ((((((((.((((((((((+)))))))))).)))))))) | 57.6
22 | CGACGTGCCCAATGTGCTG+CAGCACATTTAGCACGTCG ((((((((..(((((((((+)))))))))..)))))))) | 50.4
23 | CGACGTGCCCCATGTGCTG+CAGCACATACCGCACGTCG ((((((((...((((((((+))))))))...)))))))) | 45.8
24 | CGACGTGCCCCATGTGCTG+CAGCACATACTGCACGTCG ((((((((...((((((((+))))))))...)))))))) | 45.9

Row | Substance | Tm [°C]
25 | CGACGTGCCCCATGTGCTG+CAGCACATAGAGCACGTCG ((((((((.(.((((((((+)))))))).).)))))))) | 48.7
26 | CGACGTGCCCCATGTGCTG+CAGCACATATCGCACGTCG ((((((((...((((((((+))))))))...)))))))) | 45.5
27 | CGACGTGCCCCATGTGCTG+CAGCACATCAAGCACGTCG ((((((((...((((((((+))))))))...)))))))) | 47.3
28 | CGACGTGCCCCATGTGCTG+CAGCACATCAGGCACGTCG (((((((((..((((((((+))))))))..))))))))) | 52.5
29 | CGACGTGCCCCATGTGCTG+CAGCACATCCAGCACGTCG ((((((((...((((((((+))))))))...)))))))) | 47.4
30 | CGACGTGCCCCATGTGCTG+CAGCACATCCCGCACGTCG ((((((((...((((((((+))))))))...)))))))) | 46.2
31 | CGACGTGCCCCATGTGCTG+CAGCACATCGAGCACGTCG ((((((((.(.((((((((+)))))))).).)))))))) | 48.7
32 | CGACGTGCCCCATGTGCTG+CAGCACATCTAGCACGTCG ((((((((...((((((((+))))))))...)))))))) | 47.3
33 | CGACGTGCCCCATGTGCTG+CAGCACATGAAGCACGTCG ((((((((..(((((((((+)))))))))..)))))))) | 52
34 | CGACGTGCCCCATGTGCTG+CAGCACATGAGGCACGTCG (((((((((.(((((((((+))))))))).))))))))) | 59.6
35 | CGACGTGCCCCATGTGCTG+CAGCACATGCAGCACGTCG ((((((((..(((((((((+)))))))))..)))))))) | 51.9
36 | CGACGTGCCCCATGTGCTG+CAGCACATGCTGCACGTCG ((((((((..(((((((((+)))))))))..)))))))) | 49.7
37 | CGACGTGCCCCATGTGCTG+CAGCACATGTAGCACGTCG ((((((((..(((((((((+)))))))))..)))))))) | 51.9
38 | CGACGTGCCCCATGTGCTG+CAGCACATGTCGCACGTCG ((((((((..(((((((((+)))))))))..)))))))) | 51.2
39 | CGACGTGCCCCATGTGCTG+CAGCACATGTGGCACGTCG (((((((((.(((((((((+))))))))).))))))))) | 58.8
40 | CGACGTGCCCCATGTGCTG+CAGCACATGTTGCACGTCG ((((((((..(((((((((+)))))))))..)))))))) | 51.8
41 | CGACGTGCCCCATGTGCTG+CAGCACATTAAGCACGTCG ((((((((...((((((((+))))))))...)))))))) | 47.2
42 | CGACGTGCCCCATGTGCTG+CAGCACATTCGGCACGTCG (((((((((..((((((((+))))))))..))))))))) | 51.5
43 | CGACGTGCCCCATGTGCTG+CAGCACATTGGGCACGTCG ((((((((((.((((((((+)))))))).)))))))))) | 58.5
44 | CGACGTGCCCGATGTGCTG+CAGCACATAACGCACGTCG ((((((((...((((((((+))))))))...)))))))) | 47.6
45 | CGACGTGCCCGATGTGCTG+CAGCACATACAGCACGTCG ((((((((...((((((((+))))))))...)))))))) | 49.1
46 | CGACGTGCCCGATGTGCTG+CAGCACATACGGCACGTCG (((((((((..((((((((+))))))))..))))))))) | 53.5
47 | CGACGTGCCCGATGTGCTG+CAGCACATAGCGCACGTCG ((((((((.(.((((((((+)))))))).).)))))))) | 50.8
48 | CGACGTGCCCGATGTGCTG+CAGCACATATAGCACGTCG ((((((((...((((((((+))))))))...)))))))) | 49

Row | Substance | Tm [°C]
49 | CGACGTGCCCGATGTGCTG+CAGCACATATTGCACGTCG ((((((((...((((((((+))))))))...)))))))) | 47.7
50 | CGACGTGCCCGATGTGCTG+CAGCACATCACGCACGTCG ((((((((..(((((((((+)))))))))..)))))))) | 52.2
51 | CGACGTGCCCGATGTGCTG+CAGCACATCCAGCACGTCG ((((((((..(((((((((+)))))))))..)))))))) | 52.7
52 | CGACGTGCCCGATGTGCTG+CAGCACATCCCGCACGTCG ((((((((..(((((((((+)))))))))..)))))))) | 51.9
53 | CGACGTGCCCGATGTGCTG+CAGCACATCCTGCACGTCG ((((((((..(((((((((+)))))))))..)))))))) | 52.5
54 | CGACGTGCCCGATGTGCTG+CAGCACATCGTGCACGTCG ((((((((.((((((((((+)))))))))).)))))))) | 57.1
55 | CGACGTGCCCGATGTGCTG+CAGCACATCTTGCACGTCG ((((((((..(((((((((+)))))))))..)))))))) | 52.5
56 | CGACGTGCCCGATGTGCTG+CAGCACATGCAGCACGTCG ((((((((...((((((((+))))))))...)))))))) | 49.6
57 | CGACGTGCCCGATGTGCTG+CAGCACATGCGGCACGTCG (((((((((..((((((((+))))))))..))))))))) | 54.6
58 | CGACGTGCCCGATGTGCTG+CAGCACATGTCGCACGTCG ((((((((...((((((((+))))))))...)))))))) | 48.4
59 | CGACGTGCCCGATGTGCTG+CAGCACATTACGCACGTCG ((((((((...((((((((+))))))))...)))))))) | 48
60 | CGACGTGCCCGATGTGCTG+CAGCACATTCCGCACGTCG ((((((((...((((((((+))))))))...)))))))) | 48.2
61 | CGACGTGCCCGATGTGCTG+CAGCACATTCGGCACGTCG (((((((((..((((((((+))))))))..))))))))) | 54.9
62 | CGACGTGCCCTATGTGCTG+CAGCACATAACGCACGTCG ((((((((..(((((((((+)))))))))..)))))))) | 48.7
63 | CGACGTGCCCTATGTGCTG+CAGCACATAAGGCACGTCG (((((((((.(((((((((+))))))))).))))))))) | 55.6
64 | CGACGTGCCCTATGTGCTG+CAGCACATAATGCACGTCG ((((((((..(((((((((+)))))))))..)))))))) | 48.8
65 | CGACGTGCCCTATGTGCTG+CAGCACATAGAGCACGTCG ((((((((.((((((((((+)))))))))).)))))))) | 55.6
66 | CGACGTGCCCTATGTGCTG+CAGCACATAGGGCACGTCG (((((((((((((((((((+))))))))))))))))))) | 64.4
67 | CGACGTGCCCTATGTGCTG+CAGCACATATCGCACGTCG ((((((((..(((((((((+)))))))))..)))))))) | 48.1
68 | CGACGTGCCCTATGTGCTG+CAGCACATCACGCACGTCG ((((((((...((((((((+))))))))...)))))))) | 46.4
69 | CGACGTGCCCTATGTGCTG+CAGCACATCATGCACGTCG ((((((((...((((((((+))))))))...)))))))) | 46.8
70 | CGACGTGCCCTATGTGCTG+CAGCACATCCGGCACGTCG (((((((((..((((((((+))))))))..))))))))) | 52.2
71 | CGACGTGCCCTATGTGCTG+CAGCACATCGGGCACGTCG ((((((((((.((((((((+)))))))).)))))))))) | 58.7
72 | CGACGTGCCCTATGTGCTG+CAGCACATCGTGCACGTCG ((((((((.(.((((((((+)))))))).).)))))))) | 44.2
